First the molecules themselves.
B1: Fab #4 comprising a modified heavy chain constant region (Fab, V domains shown)
VH: QVQLVQSGAEVKKPGASVKVSCKASGGAFTSSYMHWVRQAPGQGLEWMGIIEPTGASTLYAQRFQGRVTMTRDTSTSTVYMELSSLRSEDTAVYYCARTGIALPLGFDLWGQGTLVTVSS
VL: QSVLTQPPSVSAAPGQKVTISCSGSSSNIGNNYVSWYQQLPGTAPKLLIYDNNKRPSGIPDRFSGSKSGTSATLGITGLQTEDEADYYCAAWSTRFRWVFGGGTKLTVLG
notes: Human Fab from the Ylanthia library; produced in HKB11 cells; also called Fab #4 mod; HC
B2: Fab #2 comprising a modified heavy chain constant region (Fab, V domains shown)
VH: QVQLVESGGGLVKPGGSLRLSCAASGFSFSDHYMSWIRQAPGKGLEWVSSVGSEGKFIDYAASVKGRFTISRDNAKNSLYLQMNSLRAEDTAVYYCARHYREFRWHYYYFDYWGQGTLVTVSS
VL: QSVLTQPPSVSGAPGQRVTISCTGSSSNIGAGYDVHWYQQLPGTAPKLLIYGNSNRPSGVPDRFSGSKSGTSASLAITGLQAEDEADYYCQSHDLGAHVWVFGGGTKLTVLG
notes: Human Fab from the Ylanthia library; produced in HKB11 cells; also called Fab #2 mod; HC
B3: Fab #3 comprising a modified heavy chain constant region (Fab, V domains shown)
VH: QVQLVESGGGLVKPGGSLRLSCAASGFSFGDYYVSWIRQAPGKGLEWVSAIGGSGSAVQYAESVKGRFTISRDNAKNSLYLQMNSLRAEDTAVYYCARHYREFRWHYYYFDYWGQGTLVTVSS
VL: B2 VL
notes: Human Fab from the Ylanthia library; produced in HKB11 cells; also called Fab #3 mod; HC
B4: Fab #1 comprising a modified heavy chain constant region (Fab, V domains shown)
VH: QVQLVQSGAEVKKPGASVKVSCKASGYTFTSHYMHWVRQAPGQGLEWMGLIEPSEGETEYAQRFQGRVTMTRDTSTSTVYMELSSLRSEDTAVYYCARDSSRSYPLGFDIWGQGTLVTVSS
VL: QSVLTQPPSVSAAPGQKVTISCSGSSSNIGNNYVSWYQQLPGTAPKLLIYDNNKRPSGIPDRFSGSKSGTSATLGITGLQTEDEADYYCAAWDFRSSRWVFGGGTKLTVLG
notes: Human Fab from the Ylanthia library; produced in HKB11 cells; also called Fab #1 mod; HC
B5: Reference Control Antibody RefFab #1 (humanized GPVI antibody of WO2011073954A2, SANOFI) (Fab, V domains shown)
VH: EVQLLESGPGLVAPSGSLSITCTVSGFSLTGYGVNWVRQPPGKGLEWLGMIWGDGSTDYQSTLKSRLSISKDNSKSQVFLKMNSLRTDDTARYYCARDLPMDYWGLGTSVTVSS
VL: DIQMTQSPSSLSASVGGRVTITCKASQDINKYIAWYQHKPGKGPSLLIHYTSTLQPGVPSRFSGSGSGRDYSFSISNLQPEDIATYYCLQYANLLTFGGGTKLEIKR
notes: Cloned into mammalian Fab expression vectors; a glycine-serine linker (G4S)2 was added to the C-terminus of the Fab heavy chain

In the first experiment the target is T1, mouse GPVI extracellular domain fused at its C-terminus to human IgG1 Fc (GPVI-Fc) (mouse; human).
T1 construct: also called mGPVI; mouse GPVI-Fc
T1 sequence (chain, as listed by the source limits assumed): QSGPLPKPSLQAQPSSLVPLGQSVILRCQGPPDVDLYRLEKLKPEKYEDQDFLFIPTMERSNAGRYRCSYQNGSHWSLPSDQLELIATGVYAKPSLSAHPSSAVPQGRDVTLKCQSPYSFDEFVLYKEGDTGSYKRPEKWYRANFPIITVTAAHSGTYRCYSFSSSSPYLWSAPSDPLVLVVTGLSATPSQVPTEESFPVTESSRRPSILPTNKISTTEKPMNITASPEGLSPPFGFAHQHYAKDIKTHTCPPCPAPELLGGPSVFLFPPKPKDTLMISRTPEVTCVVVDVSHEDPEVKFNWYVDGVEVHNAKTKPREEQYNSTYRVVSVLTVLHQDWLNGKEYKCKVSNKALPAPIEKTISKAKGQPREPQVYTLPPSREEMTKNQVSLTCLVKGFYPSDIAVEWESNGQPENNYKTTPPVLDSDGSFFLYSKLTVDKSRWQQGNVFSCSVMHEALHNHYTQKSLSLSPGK
Description: Competition ELISA (MSD): mouse GPVI-Fc preincubated with Fab, then on coated CRP-XL (competitor). Here is the method: (§1) 1 or 10 μg/ml of recombinant GPVI collagen substrate (crosslinked collagen-related peptide (CRP-XL (Anaspec, Inc.), rat-tail collagen (Enzo Life Sciences) or VitroCol (Advanced BioMatrix, Inc.) was coated on a MSD-plate over night at 4° C., washed with PBST, blocked for 1 h at RT with PBS supplemented with 0.05% Tween-20 and 3% skim milk powder, and subsequently washed again with PBST. Purified recombinant GPVI antigens (human, cynomolgus monkey or mouse GPVI as prepared in Example 1) diluted in PBS and varying concentrations of Fab (comprising a modified heavy chain constant region) diluted in PBS (final concentration range 200-0.3 μg/ml) were incubated in a polypropylene plate for 30 min at RT. Fab/GPVI-Fc mixture was added to coated collagen substrate for 1 h at RT. After washing with PBST, bound GPVI form different species was detected using an ECL-conjugated detection antibody directed against human Fc (Jackson Immuno Research) for 1 h at RT. MSD read buffer (Meso Scale Discovery) was added prior to readout in a Sector Imager6000 (Meso Scale Discovery).
B1: the IC50 turned out to be 10.6 nM and the “Max. inhibition at 200 nM Fab [%]” value was found to be 67%.
Take B2: the IC50 was 12 nM and the “Max. inhibition at 200 nM Fab [%]” value turned out to be 99%.
On the same counts, the results for B3 are 8.1 nM and 100%.
Consider B4, for which the 50% inhibitory concentration (IC50) came to 26.4 nM and the “Max. inhibition at 200 nM Fab [%]” value is 77%.

The target in the next experiment is T2, mouse GPVI on the cell surface of mouse platelets (mouse, UniProt P0C191 22-313).
T2 construct: whole, on cells; also called GPVI on murine platelets
T2 sequence (looked up): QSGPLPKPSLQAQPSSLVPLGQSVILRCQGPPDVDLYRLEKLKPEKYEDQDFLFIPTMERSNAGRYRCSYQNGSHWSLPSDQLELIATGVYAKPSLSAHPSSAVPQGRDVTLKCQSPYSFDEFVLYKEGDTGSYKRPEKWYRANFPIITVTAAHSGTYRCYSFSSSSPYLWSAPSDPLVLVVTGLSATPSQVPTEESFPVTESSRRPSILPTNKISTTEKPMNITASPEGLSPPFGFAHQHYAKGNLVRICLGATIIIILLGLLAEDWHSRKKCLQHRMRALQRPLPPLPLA
Description: FACS on washed murine platelets from PRP (one exemplary donor), PE-conjugated detection antibody, median fluorescence. As for the experimental part:
(§2) Platelet-rich plasma (PRP) from up to 4 donors was prepared by centrifugation of citrated whole blood for 15 min at 150×g without brake. The resulting supernatant was transferred as PRP into a new sample tube without disturbing the underlying leukocyte-rich interphase. After careful washing in Tyrode's buffer supplemented with Prostacyclin 1₂ (PGI2; Epoprostenol-Rotexmedica), platelets were resuspended in Tyrode's/PGI2 and transferred to 96 well V-bottom microtiter plates. Platelets were spiked with Fab (comprising a modified heavy chain constant region) diluted to final concentrations between 0.015-30 μg/ml in Tyrode's/PGI2 and incubated for 30 min at RT. Platelets were carefully washed to remove non-bound Fab and then incubated for 30 min at RT with a Phycoerythrine (PE)-conjugated detection antibody (Jackson ImmunoResearch). After incubation for 30 min at RT, platelets were analyzed by flow cytometry in a FACS Canto II (Becton Dickinson). In the case of Fab directly conjugated with PE (FIG. 1D), incubation with detection antibody was omitted. Data was evaluated using FACS Diva software (Becton Dickinson). EC50 values were calculated using Prism 5 software (GraphPad).
Turning to B1, the concentration for a half-maximal effect (EC50 (read off the curve)) is around 0.2 µg/mL.
Regarding B2, the “EC50 (read off the curve)” value is around 0.5 µg/mL.
With B3, the “EC50 (read off the curve)” value is around 0.3 µg/mL.
The same measure, in the same setting: then B4, with around 3 µg/mL.

For a further experiment, the target named is T3, human GPVI-1A extracellular domain fused at its C-terminus to human IgG1 Fc (GPVI-Fc) (human).
T3 construct: also called hGPVI-1a; hGPVI
T3 sequence (chain, as listed by the source limits assumed): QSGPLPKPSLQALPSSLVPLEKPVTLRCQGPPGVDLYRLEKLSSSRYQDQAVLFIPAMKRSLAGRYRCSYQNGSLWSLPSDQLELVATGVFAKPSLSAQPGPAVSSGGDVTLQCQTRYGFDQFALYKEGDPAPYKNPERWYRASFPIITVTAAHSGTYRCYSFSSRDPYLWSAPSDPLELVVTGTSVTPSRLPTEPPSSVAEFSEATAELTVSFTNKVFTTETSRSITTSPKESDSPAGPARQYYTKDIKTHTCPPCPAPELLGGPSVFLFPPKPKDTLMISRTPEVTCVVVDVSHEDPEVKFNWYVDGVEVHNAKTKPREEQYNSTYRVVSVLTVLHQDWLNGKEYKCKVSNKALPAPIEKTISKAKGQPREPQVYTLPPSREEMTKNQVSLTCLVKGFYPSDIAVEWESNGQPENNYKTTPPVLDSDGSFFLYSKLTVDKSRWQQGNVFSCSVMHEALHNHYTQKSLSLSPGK
Description: Solution equilibrium titration (SET), Fab with GPVI-Fc. As for the experimental part: (§3) Affinity determination in solution was basically performed as described in the literature (Friguet et al. 1985). In order to improve the sensitivity and accuracy of the SET method, it was transferred from classical ELISA to ECL-based technology (Haenel et al. 2005).
(§4) 1 mg/mL goat-anti-human (Fab)2 fragment specific antibodies (Dianova) were labeled with MSD Sulfo TAG™ NHS-Ester (Meso Scale Discovery | Gaithersburg | Md. | USA) according to the manufacturer's instructions. The experiments were carried out in polypropylene microtiter plates and PBS (GIBCO 14190 | pH 7.0-7.2) containing 0.5% BSA and 0.02% Tween20 as assay buffer. Serial dilutions of unlabeled human GPVI-Fc (SEQ ID NO: 4), cynomolgus monkey GPVI-Fc (SEQ ID NO: 7), and mouse GPVI-Fc (SEQ ID NO: 8) (as prepared in Example 1) were prepared, starting with a concentration at least 10 times higher than the expected KD. Wells without antigen were used to determine Bmax values; wells containing only assay buffer were used to determine background. After addition of appropriate amount of binder (antibody concentration similar to or below the expected KD, 60 μL final volume), the mixture was incubated over night at RT. MSD plates were coated with antigen or biotinylated antigen on standard and streptavidin plates, respectively (30 μL per well). After washing the plate with PBS with 0.05% Tween 20, the equilibrated samples were transferred to the plates and incubated for 20 min. Following incubation, 30 μL per well of the MSD-Sulfo-tag labeled detection antibody (anti-human (Fab)2 | final dilution typically 1:2,000) was added to the washed MSD plate and incubated for 30 min at RT on an Eppendorf shaker (700 rpm). After washing the MSD plate and adding 30 μL/well MSD Read Buffer T with surfactant, electrochemiluminescence signals were detected using a Sector Imager 6000 (Meso Scale Discovery | Gaithersburg | Md. | USA). The data was evaluated with XLfit (IDBS) software applying customized fitting models. For KD determination of Fabs the fit model according to (Haenel et al. 2005), modified according to (Abraham et al.) was used.
For the molecule B1, binding was characterised by a dissociation constant (Kd) of 0.022 nM.
On the same count and under the same terms, then B2, with 0.027 nM; and B3, with 0.062 nM.
The same measure, in the same setting: the value for B5 was 0.054 nM.
The same measure, in the same setting: the value for B4 was 0.068 nM.

In a further experiment the target is T4, cynomolgus monkey GPVI extracellular domain fused at its C-terminus to human IgG1 Fc (GPVI-Fc) (cynomolgus monkey; human).
T4 construct: also called cyGPVI-2; cyGPVI
T4 sequence (chain, as listed by the source limits assumed): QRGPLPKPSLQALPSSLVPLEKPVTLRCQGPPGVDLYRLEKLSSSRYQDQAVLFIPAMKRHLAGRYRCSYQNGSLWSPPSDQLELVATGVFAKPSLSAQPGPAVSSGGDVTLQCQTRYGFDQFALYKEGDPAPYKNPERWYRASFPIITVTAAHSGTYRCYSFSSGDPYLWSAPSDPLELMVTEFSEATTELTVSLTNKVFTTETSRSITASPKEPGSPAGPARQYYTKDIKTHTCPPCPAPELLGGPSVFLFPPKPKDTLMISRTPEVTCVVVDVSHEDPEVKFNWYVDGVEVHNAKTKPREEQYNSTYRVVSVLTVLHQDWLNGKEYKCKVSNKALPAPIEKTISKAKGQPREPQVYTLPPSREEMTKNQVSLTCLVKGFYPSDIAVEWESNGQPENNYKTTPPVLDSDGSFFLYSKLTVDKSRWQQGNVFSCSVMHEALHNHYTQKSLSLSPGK
Described as above. As for the experimental part:
as §3, §4
Take B1: the Kd was 0.017 nM.
Molecule B2 had an equilibrium dissociation constant (Kd) of 0.024 nM.
Same read-out and setting: then B3, with 0.068 nM; and B5, with 0.036 nM; and B4, with 0.075 nM.

The target of a further experiment is T1, mouse GPVI extracellular domain fused …. The description is as above. As for the experimental part: as §3, §4
For the molecule B1, binding was put at a Kd of 0.29 nM.
On the same count and under the same terms, then B2, with 7.1 nM.
On the same count and under the same terms, then B3, with 0.6 nM; and B4, with 28 nM.

The target of another experiment is T5, cynomolgus monkey GPVI on the cell surface of cynomolgus monkey platelets (cynomolgus monkey).
T5 construct: whole, on cells; also called GPVI on cynomolgus monkey platelets
Put plainly: FACS on washed cynomolgus platelets from PRP (one donor), PE-conjugated detection antibody, median fluorescence. As for the experimental part: as §2
For B1, the 50% effective concentration (EC50 (read off the curve)) is around 0.7 µg/mL.
Same read-out and setting: then B2, with around 0.6 µg/mL; and B3, with around 0.6 µg/mL; and B5, with around 0.5 µg/mL.
The same measure, in the same setting: then B4, with around 0.4 µg/mL.

The next experiment concerns the target T1, mouse GPVI extracellular domain fused …. Description: Competition ELISA (MSD): mouse GPVI-Fc preincubated with Fab, then on coated VitroCol (competitor). Here is the method: as §1
In general terms: In an ELISA, binding on a coated surface is turned into a signal by an enzyme label.
For the molecule B1, the concentration for half-maximal inhibition (IC50) came out at 6.7 nM and the “Max. inhibition at 200 nM Fab [%]” value worked out at 94%.
Regarding B2, the IC50 is 4.3 nM and the “Max. inhibition at 200 nM Fab [%]” value stood at 99%.
On the same counts, the results for B3 are 3.3 nM and 100%.
As to B4, the 50% inhibitory concentration (IC50) came to 9.1 nM and the “Max. inhibition at 200 nM Fab [%]” value was found to be 96%.

What is called IC50 is the concentration that gives 50% inhibition. For orientation: EC50 (read off the curve) means the concentration at which the effect is half-maximal. As usually defined, the Kd is the concentration at which binding is half-saturated.

Values taken from patent US20210214435A1 (MorphoSys, published 2021).
